This is an account of results in patent US20220273810A1 (IMCARE BIOTECH, published 2022).

Sequences and labels used below:
B1: IM-E2 (antibody, V domains shown)
VH: QSVKESEGGLFKPTDTLTLTCTVSGFSLSAYAISWVRQAPGNGLEWIGAINSGGSAYYANWAKSRSTITRNTNLNTVTLKMTSLTAADTATYFCAREDIYDYGGAFDPWGPGTLVTVST
VL: AYDMTQTPASVEVTVGGTVTIKCQASQGISSYLSWYQQKPGQPPKLLIYAATTLVSGVSSRFKGSGSGTQFTLTISGVECADAATYYCQQDYTTSNVDNTFGGGTEVVVKG
notes: Rabbit monoclonal antibody
B2: IM-D3 (antibody, V domains shown)
VH: QSVKESEGGLFKPTDTLTLTCTVSGFSLSSYAIGWVRQAPGNGLEWIGTIVTSGIPYYANWAKSRSTITRNTNLNTVTLKMTSLTAADTATYFCARNLDPAYSTTRLDLWGQGTLVTVSS
VL: AYDMTQTPASVSEPVRGTVTIKCQASQSISTALAWYQQKPGQPPKLLIYAASYLASGVPSRFSGSGSGTEFTLTISDLECADAATYYCHQGYSASNVDNTFGGGTEGGVKG
notes: Rabbit monoclonal antibody
B3: IM-G6 (antibody, V domains shown)
VH: QSVKESEGGLFKPTDTLTLTCTVSGFSLSSYPISWVRQAPGNGLEWIGDIYASGSILYASWATGRSTITRNTNLNTVTLKMTSLTAADTATYFCARVSYSGGTDIWGPGTLVTVSS
VL: AYDMTQTPASVEVAVGGTVTIKCQASEDIESYLAWYQQKPGQPPKLLIYRASTLPSGVPSRFKGSGSGTEFTLTISDLECADAATYYCQQDYSSSNVDNTFGGGTEVVVKG
notes: Rabbit monoclonal antibody
B4: IM-C6 (antibody, V domains shown)
VH: QSVKESEGGLFKPTDALTLTCTVSGFSLSSYAISWVRQAPGSGLEWIGAINTYGGTYYASWAKSRSTITRNTNENTVTLKMTSLTAADTATYFCARDFDSDAYTSASGGMDPWGPGTLVTVSS
VL: AYDMTQTPASVEVAVGGTVTIKCQASQSINNYLSWYQQIPGQPPKLLIYRASTLASGVSSRFKGSGSGTQFTLTISGVQCADAATYYCQQGYTSNVDNVFGGGTEVVVKG
notes: Rabbit monoclonal antibody
B5: IM-D5 (antibody, V domains shown)
VH: QSVKESEGGLFKPTDTLTLTCTVSGFSLSSYAISWVRQAPGNGLEWIGAIGKSGSAYYASWAKSRSTITRNTNLNTVSLKMTSLTAADTATYFCARWDSVGWTDARLDLWGQGTLVTVSS
VL: AYDMTQTPASVEVAVGGTVTIKCQASQSISTALAWYQQKPGQRPKLLIYGASKLASGVSSRFSGSGSGTEFTLTISGVECADAATYYCQQGYETSNVDNAFGGGTEVVVKG
notes: Rabbit monoclonal antibody
B6: IM-G7 (antibody, V domains shown)
VH: QSVKESEGGLFKPTDTLTLTCTVSGFSLSSNVISWVRQAPGKGLEWIGDIYVSGNTDYASWAKSRSTITRNANLNTVTLKMTSLTAADTATYFCARYDMSSDAFDPWGPGTLVTVSS
VL: AYDMTQTPASVEVAVGGTVTIKCQASQNIGSYLSWYQHKPGQRPRLLMYRASTLASGVSSRFKGSGSGTEFTLTISGVQCDNAATYYCQQGYTNSGVDNTFGGGTEVVVKG
notes: Rabbit monoclonal antibody
B7: IM-F5 (antibody, V domains shown)
VH: QSVKESEGGLFKPTDTLTLTCTVSGFSLSIYGVSWVRQAPGNGLEWIGIIYASGSADYASWAKSRSTITRNTNLNTVTLKMTSLTAADTATYFCAREDDTYGYTSSIWGPGTLVTVSS
VL: AYDMTQTPASVSAAVGGTVTIKCQASQSISSYLNWYQQKPGQPPKRLIYRASTLASGVSSRFKGSGSGTQFTLTISGVECADAATYYCQQDYSSNNIDNTFGGGTEVVVKG
notes: Rabbit monoclonal antibody
B8: IM-A6 (antibody, V domains shown)
VH: QSVKESEGGLFKPTDTLTLTCTVSGFSLSSYAISWVRQAPGNGLEWIGRINSGGATDYASWARSRSTITRDTNLNTVTLQMTSLTAADTATYFCAKEEYSYGGAYGMWGPGTLVTVSS
VL: AYDMTQTPASVSAAVGGTVTIKCQASESISTYLSWLQQKPGQPPKLLIYKASTLASGVPSRFKGSGSGTEFTLTISGVQCDDAATYYCQQDYTISNVGNVFGGGTEVVVKG
notes: Rabbit monoclonal antibody; also called I-A6
B9: IM-B10 (antibody, V domains shown)
VH: QSVKESEGGLFKPTDTLTLTCTVSGFSLSSYGVSWVRQAPGKGLEWIGSIWSGGTTDYASWAKSRSTITRNTNENTVTLKVTSLTAADTATYFCARGGYDYGYASNIWGPGTLVTVSS
VL: AYDMTQTPASVEVAVGGTVTIKCQASESISSYLSWYQQKPGQPPKLLIYRASTLASGVPSRFSGSGSGTEFTLTISDGQCDDAATYYCQQGYSVSNVDNIFGGGTEVVVKG
notes: Rabbit monoclonal antibody; also called IM4-B10
B10: IM-A1 (antibody, V domains shown)
VH: QSVKESEGGLFKPTDTLTLTCTVSGFSLSSNAISWVRQAPGNGLEWIGAIGSSGSTYYASWAKSRSTVTRNTNLNTVTLKMTSLTAADTATYFCARWENIGYTNVRLDLWGQGTLVTVSS
VL: AYDMTQTPASVEVAVGGTVTIKCQASQSISTALAWYQQKPGQPPKLLIYGASTLASGVSSRFKGSGSGTQFTLTISGVECADAATYYCQQGYSTSDVDNAFGGGTEG
notes: Rabbit monoclonal antibody; also called I-A1

In the first experiment the target is AS-SPIK (Abnormal Secreted serine protease inhibitor Kazal) (Homo sapiens (Human)) (UniProt P00995). Briefly: sandwich ELISA, S2-3 medium, complex captured on polyclonal anti-SPIK plate, anti-rabbit-HRP/TMB. In general terms: In an ELISA, binding on a coated surface is turned into a signal by an enzyme label.
B1: the OD was found to be 1.39 OD.

The target is the same in the next experiment. Nature of the experiment: sandwich ELISA, HCC patient serum (serum AS-SPIK), complex captured on polyclonal anti-SPIK plate, anti-rabbit-HRP/TMB.
In the case of B1, the OD stood at 1.48 OD.

For the next experiment, the target named is T1, NS-SPIK (Normal Secreted serine protease inhibitor Kazal) (Homo sapiens (Human), UniProt P00995 24-79).
T1 construct: also called Normal Secreted SPIK
T1 sequence: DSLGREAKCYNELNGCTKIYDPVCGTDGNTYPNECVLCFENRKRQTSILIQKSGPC
Briefly: ELISA on a plate immobilised with NS-SPIK from pancreatic cells, OD450nm; antibody concentration not given. How it is done: Ten monoclonal antibodies described here were generated from rabbit. Briefly, rabbit were immunized with the recombinant AS-SPIK which contain different subsets of 23 extra amino acids (SEQ ID NO: 81). The blood was tested after three or four time imbursements by ELISA. Briefly, blood from immunized rabbits were reacted with plate coated with recombinant AS-SPIK. After washing, the color was developed by incubation of the plate with an anti-rabbit antibody labeled with HRP (horseradish peroxidase), and the optical density was measured after reaction with substrate TMB. The rabbit which is positive in test (produced antibody) was sacrificed. The monoclonal antibody was then established and further screened with ELISA using the plates immobilized with partially purified AS-SPIK from S2-3 cells, a cell line expresses high amount of AS-SPIK by integrated entire SPIK gene, Lu et. al Tumor-associated protein SPIK TATI suppresses serine protease dependent cell apoptosis, Apoptosis, 2008 13(4), 483-494 and NS—SPIK from pancreatic cells. Finally, 10 monoclonal antibodies which strongly bind AS-SPIK but not NS-SPIK were selected.
For the molecule B2, the binding result was “no binding”.

Consider B3, for which the binding result was “no binding”.

As to B4, the binding result is “no binding”.

In the case of B5, the binding result was “no binding”.

As for B6, the binding result is given as “no binding”.

Regarding B1, the binding result is “no binding”.

In the case of B7, the binding result is reported as “no binding”.

As to B8, the binding result is “no binding”.

Consider B9, for which the binding result is recorded as “no binding”.

As for B10, the binding result is recorded as “no binding”.
